From the supplement of paper PMC7125110
± gives the standard error. Variants at the floor of the assay were thinned out.

B1: glmS ribozyme (parent)
chain: AUAAAAGCGCCAGAACUACAGAAAUGUAGUUGACGAGGAGGAGGUUUAUCGAAUUUUCGGCGGAUGCCUCCAAA

What was measured:
Conditions in all cases: with glucosamine-6-phosphate
glucosamine-6-phosphate [1] = variants of: B1; experiment: self-cleavage kobs at 160 uM GlcN6P; higher = faster cleavage; RNA array
Summary of the method: (§1)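 Barcoded glmS ribozyme variants on sequenced MiSeq chips were transcribed in situ by E. coli RNA polymerase and tracked through a hybridised Cy3 probe at 37 °C. Glucosamine-6-phosphate (40 μM to 10 mM) in HEPES/KCl/Mg(OAc)2 buffer was flowed in, and tiles were imaged over ~14 h. Signals were normalised to baseline and to non-cleaving reference variants; per-tile medians were fit to one- or two-exponential decays to give kobs. kcat and KM came from weighted Michaelis–Menten fits across concentrations.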

glucosamine-6-phosphate [2] = variants of: B1; experiment: self-cleavage kobs at 640 uM GlcN6P; higher = faster cleavage; RNA array
Summary of the method: as §1

glucosamine-6-phosphate [3] = variants of: B1; experiment: self-cleavage kobs at 10000 uM GlcN6P; higher = faster cleavage; RNA array
Summary of the method: as §1

glucosamine-6-phosphate [4] = variants of: B1; experiment: self-cleavage kobs at 2500 uM GlcN6P; higher = faster cleavage; RNA array
Summary of the method: as §1

Variant: AUAAAAGCGCCAGAACUACAGAAAUGUAGUUGACGAGGCGGAGGUUUAUCAAAUUUUCGGCGCAUGCCUCCAAA
- self-cleavage kobs at 160 uM GlcN6P (glucosamine-6-phosphate [1]): < 1e-05 s⁻¹
- self-cleavage kobs at 640 uM GlcN6P (glucosamine-6-phosphate [2]): < 1e-05 s⁻¹

Variant: AUAAAAGCGCCAGAACUACAGAAAUGUAGUUGACGAGGAAGAGGUUUAUCGAAUUUUCGGUGGAUGCGUGGAAA
- self-cleavage kobs at 160 uM GlcN6P (glucosamine-6-phosphate [1]): < 1e-05 s⁻¹
- self-cleavage kobs at 640 uM GlcN6P (glucosamine-6-phosphate [2]): < 1e-05 s⁻¹

Variant: AUAAAAGCGCCAGAACUACAGAAAUGUAGUUGACGAGGCGGAGGUUUGUCGAAUUUUCGGCGGAUGCCUCCAAA
- self-cleavage kobs at 160 uM GlcN6P (glucosamine-6-phosphate [1]): < 1e-05 s⁻¹
- self-cleavage kobs at 10000 uM GlcN6P (glucosamine-6-phosphate [3]): 3.36e-05 ± 1.2e-05 s⁻¹

Variant: AUAAAAGCGCCAGAACUACAGAAAUGUAGUUGACGAGUAGGAGCUUUAUCGAAUUCGCGGCGGAUGCCUUCAAA
- self-cleavage kobs at 160 uM GlcN6P (glucosamine-6-phosphate [1]): < 1e-05 s⁻¹
- self-cleavage kobs at 2500 uM GlcN6P (glucosamine-6-phosphate [4]): < 1e-05 s⁻¹

Variant: AUAAAAGCGCCAGAACUACAGAAAUGUAGUUGACGAGGUAGAGGUUUAUCGAAUUUUCGGCGGGUGCCUCCAAA
- self-cleavage kobs at 160 uM GlcN6P (glucosamine-6-phosphate [1]): 0.000419 ± 0.00012 s⁻¹
- self-cleavage kobs at 640 uM GlcN6P (glucosamine-6-phosphate [2]): 0.000775 ± 0.00021 s⁻¹
- self-cleavage kobs at 2500 uM GlcN6P (glucosamine-6-phosphate [4]): 0.00738 ± 0.0025 s⁻¹

Variant: AUAAAAGCGCCAGAACUACAGAAAUGUAGUUGACGAGGGGGAGGUUUAUCUAAUUUUCUGCGGAUGCCUCCAAA
- self-cleavage kobs at 160 uM GlcN6P (glucosamine-6-phosphate [1]): < 1e-05 s⁻¹
- self-cleavage kobs at 640 uM GlcN6P (glucosamine-6-phosphate [2]): < 1e-05 s⁻¹
- self-cleavage kobs at 10000 uM GlcN6P (glucosamine-6-phosphate [3]): < 1e-05 s⁻¹

Variant: AUAAAAGCGCCAGAACUACAGAAAUGUAGUUGACGAGGUCGAGGUCUAUCGAAUUUUCGGCGGAUGCCUCCAAA
- self-cleavage kobs at 160 uM GlcN6P (glucosamine-6-phosphate [1]): 5.92e-05 ± 1.4e-05 s⁻¹
- self-cleavage kobs at 640 uM GlcN6P (glucosamine-6-phosphate [2]): 0.000338 ± 5.3e-05 s⁻¹
- self-cleavage kobs at 2500 uM GlcN6P (glucosamine-6-phosphate [4]): 0.000277 ± 7.4e-05 s⁻¹

Variant: AUAAAAGCGCCAGAACUACAGAAAUGUAGUUGACGAGGGGAAGGUUUAUCGAAUUUUCUUCGGAUGCCUCCAAA
- self-cleavage kobs at 160 uM GlcN6P (glucosamine-6-phosphate [1]): < 1e-05 s⁻¹

Variant: AUAAAAGCGCCAGAACUACAGAAAUGUAGUUGACGAGGAAGUGGUUUACCGAAUUUUGGGCGGGUGCCUGCAAA
- self-cleavage kobs at 160 uM GlcN6P (glucosamine-6-phosphate [1]): < 1e-05 s⁻¹
- self-cleavage kobs at 640 uM GlcN6P (glucosamine-6-phosphate [2]): < 1e-05 s⁻¹
- self-cleavage kobs at 2500 uM GlcN6P (glucosamine-6-phosphate [4]): < 1e-05 s⁻¹

Variant: AUAAAAGCGCCAGAACUACAGAAAUGUAGUUGACGAGGCCGAGGUUUAUCGGAUUUUCGGCGGAUGCCUCCAAA
- self-cleavage kobs at 160 uM GlcN6P (glucosamine-6-phosphate [1]): < 1e-05 s⁻¹
- self-cleavage kobs at 640 uM GlcN6P (glucosamine-6-phosphate [2]): < 1e-05 s⁻¹

Variant: AUAAAAGCGCCAGAACUACAGAAAUGUAGUUGACGAGGCGGAGGUUUAUCGAAUUUUCGGUGGAUGCCUCUAAA
- self-cleavage kobs at 160 uM GlcN6P (glucosamine-6-phosphate [1]): < 1e-05 s⁻¹
- self-cleavage kobs at 640 uM GlcN6P (glucosamine-6-phosphate [2]): < 1e-05 s⁻¹
- self-cleavage kobs at 2500 uM GlcN6P (glucosamine-6-phosphate [4]): < 1e-05 s⁻¹

Variant: AUAAAAGCGCCAGAACUACAGAAAUGUAGUUGACGAGUAGGAGGUUUAUCGAAUUUUCGGCCGAUGCCUCCAAA
- self-cleavage kobs at 160 uM GlcN6P (glucosamine-6-phosphate [1]): < 1e-05 s⁻¹
- self-cleavage kobs at 640 uM GlcN6P (glucosamine-6-phosphate [2]): < 1e-05 s⁻¹

Variant: AUAAAAGCGCCAGAACUACAGAAAUGUAGUUGACGAGGGGGAUGUUUAUCGAAUUUUAGGCGGAUGCCUCCAAA
- self-cleavage kobs at 160 uM GlcN6P (glucosamine-6-phosphate [1]): < 1e-05 s⁻¹
- self-cleavage kobs at 640 uM GlcN6P (glucosamine-6-phosphate [2]): < 1e-05 s⁻¹
- self-cleavage kobs at 2500 uM GlcN6P (glucosamine-6-phosphate [4]): < 1e-05 s⁻¹

Variant: AUAAAAGCGCCAGAACUACAGAAAUGUAGUUGACGAGGCGGAGGUUUAUCGAUUUUUCUGCGGAUGUCUCCAAA
- self-cleavage kobs at 160 uM GlcN6P (glucosamine-6-phosphate [1]): < 1e-05 s⁻¹

Variant: AUAAAAGCGCCAGAACUACAGAAAUGUAGUUGACGAGGCGGCGGUCUAUCGAAUUUUCGGCGGAUGCCUCCAAA
- self-cleavage kobs at 160 uM GlcN6P (glucosamine-6-phosphate [1]): < 1e-05 s⁻¹

Variant: AUAAAAGCGCCAGAACUACAGAAAUGUAGUUGACGAGUAGAAGGUUUAUCGAAUUUUAGGAGGAUGCCUCCAAA
- self-cleavage kobs at 160 uM GlcN6P (glucosamine-6-phosphate [1]): < 1e-05 s⁻¹
- self-cleavage kobs at 640 uM GlcN6P (glucosamine-6-phosphate [2]): < 1e-05 s⁻¹

Variant: AUAAAAGCGCCAGAACUACAGAAAUGUAGUUGACGAGGUGGAGGUUUAUCUAAUUUUCGGCUGAUGCCUCAAAA
- self-cleavage kobs at 160 uM GlcN6P (glucosamine-6-phosphate [1]): < 1e-05 s⁻¹
- self-cleavage kobs at 2500 uM GlcN6P (glucosamine-6-phosphate [4]): < 1e-05 s⁻¹
